# Measured values reported in publication PMC2191786.
# Biological target: B7-1 on stably transfected B7-1+ Chinese hamster ovary (CHO) cells (human) (UniProt P33681)
# Experiment: ELISA
# Sequence of UniProt P33681 (P33681 35-288): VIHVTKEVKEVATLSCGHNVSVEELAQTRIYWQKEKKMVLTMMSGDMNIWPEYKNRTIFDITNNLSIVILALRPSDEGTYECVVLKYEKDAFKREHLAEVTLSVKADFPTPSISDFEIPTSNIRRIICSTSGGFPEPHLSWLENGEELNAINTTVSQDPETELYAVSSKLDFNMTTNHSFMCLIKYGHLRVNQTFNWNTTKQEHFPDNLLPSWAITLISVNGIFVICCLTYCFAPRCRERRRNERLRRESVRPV
row,Substance,percentage of B7-1 binding activity (of CTLA4Ig) [%]
1,CTLA4Ig M99A (Fc fusion),< 0.1
2,CTLA4Ig P102A (Fc fusion),3
3,CTLA4Ig P103A (Fc fusion),< 0.1
4,CTLA4Ig Y100A (Fc fusion),3
5,CTLA4Ig Y104A (Fc fusion),< 0.1
